The text below walks through data of the DeepSol protein solubility set.

This series in a line: soluble on expression in E. coli; label from the status in PepcDB or PDB records.
Consider “MVATEKKFVLTHIFKNVSKMKDSDFLYSPEENLFNVPWFMLIARKDDHFGVFLHCQKINEAGPTWSVDTQNTIRVKTLSASKVSSEIFKHKFEKNEGWGYFKFISWDTLTNDYLIDDCIIVEITVKITKMTGIPKKVLRSFDKSAEEFSDVVLEVGGKKFYVLKKFLASHSTYFNALLLGKPEMSEVTIQDTSSVDFQNLLEVLYGEPAIDEDTIDGILTLAHKFTMPLPIQKCEEFLIEKSEKSVKEKLKLVKKYQLKSLKTHCLSKINTPYGINALMPFDHNDMDPEVVMALLKKSLATDEFYLDCIMRFTVICLIFITVGLII”, for which the “soluble on expression in E. coli” value was “not soluble”.
For “MVCDFSQVRLRLADDGWRGTTTRREKDDAEDVEGKVTLRLRYTKTGAMRFLSHLEMIGLFTRAVGRSRIPIRFSRGFHPHPKFSFATALSVGVESWAEYLDMELFPGADPTDIGTRLNGALPEGVRIVEASVIPPGSPSLSVIMDKVRYRVTLPPEAAVGLPELAAAFLARESVPLRREKKGRVLEHHHHHH”, the “soluble on expression in E. coli” value is reported as “not soluble”.
For the sequence “MVDEDKKSGTRVFKKTSPNGKITTYLGKRDFIDRGDYVDLIDGMVLIDEEYIKDNRKVTAHLLAAFRYGREDLDVLGLTFRKDLISETFQVYPQTDKSISRPLSRLQERLKRKLGANAFPFWFEVAPKSASSVTLQPAPGDTGKPCGVDYELKTFVAVTDGSSGEKPKKSALSNTVRLAIRKLTYAPFESRPQPMVDVSKYFMMSSGLLHMEVSLDKEMYYHGESISVNVHIQNNSNKTVKKLKIYIIQVADICLFTTASYSCEVARIESNEGFPVGPGGTLSKVFAVCPLLSNNKDKRGLALDGQLKHEDTNLASSTILDSKTSKESLGIVVQYRVKVRAVLGPLNGELFAELPFTLTHSKPPESPERTDRGLPSIEATNGSEPVDIDLIQLHEELEPRYDDDLIFEDFARMRLHGNDSEDQPSPSANLPPSLL”, the “soluble on expression in E. coli” value is on record as “not soluble”.
Regarding “MVDESKLQCYHKGCGLLFDPKENDNEACTYHPGGPYFHDAYKIWTCCDKKSTDFGTWMNYKGCTRGKHSNEKPVDIVKVAAVKEIRPEKEEDVIVWKGLNKSGKLDSKDATKRIEQNLNVEVTPGATAAIEKKLKEISEAAQSADIQIGAPCRNNGCSTEFDGSKNKENCQHHPGAAIFHEGMKYWSCCNKKTSNFGAFLEQVGCTSGEHKFRNNEIVSKFREDWFSSNGFVTINVYCRGALPETANIVSDGHTVRVSMKHGFGNASVDLDYDLWDEVIPEESRVVIGERKVEISLKQKHGTGWPRLKFDPELDAKNDEEA”, the “soluble on expression in E. coli” value is reported as “not soluble”.
As for “MVEDPYIWMENLQDNRVREIIERENKKFREFIGELSDKLFPEVWEYFSIPTVTMAKITKRGIIVSYNEKDRSIIRWLDGDVIVDSKEIEREVGDEVLLQGFTADDEGEKLAYSFSIGGADEGITRIIDLKSGEVIEEIKPSIWNILFLKDGYYFARFYRKEKTPDGVDPPAERVFWKDKEGEKMVFGEGLTSGYFMTLRKSSDDKFAMLTLNYGWNQGEIYVGPIDKPQEWRKVYSATVPVEPVDIVNGKLYILTREGRGMGKVIAVKDGEIEEVIPEGEFPLEWAVIVDDKIVAGRLVHASHRLEVYTLKGEKIEEVTFDIPGALHPLDKNNKEVLLRYISFTIPYRLYEFKDKLRIIEERKVEGKFKVEEDFVVSKDGTRIHYFIIKGEKDEKKAWVFGYGGFNIALTPRFFPQVIPFLKRGGTFVMANLRGGSEYGEEWHRAGMRENKQNVFDDFIAVLEKLKKEGYKVAAWGRSNGGLLVSATLTQRPDIMDAALIGYPVIDMLRFHKLYIGSVWIPEYGNPDDPKDREFLLKYSPYHNVDPNKKYPLTLIYTGLHDDRVHPAHALKFFMKLKEVGAPVYLRVETKSGHMGASPETRARELTDLLAFVLKSLS”, the entry is “soluble”; as for “MVEGKVTLRLRYTKTGAMRFLSHLEMIGLFTRAVGRSRIPIRFSRGFHPHPKFSFATALSVGVESWAEYLDMELFPGADPTDIGTRLNGALPEGVRIVEASVIPPGSPSLSVIMDKVRYRVTLPPEAAVGLPELAAAFLARESVPLRREKKGRVLEHHHHHH”, “soluble”.
As for “MVEINLRELKKYANPFFLTIRKDKILVNNKRMARLSRTKMDKIEEEFGIPVIYSKTYEYVSTKVGRFINKHKIIAPRDIVIVGLSGGKDSLLLLHLLEVYRRKYGIKLIAVTVDVNIGGIRPWKEDTEGVKLIKHHCEMLNVPHIILKNDLDVVELSEILTKHSKGMEFSPCFSCSVIKRHLLGKLAKEIAENENIPYEKVKLAYGHNLDDNSDTILANIFKGERLKFMRPLTRFKYNEVDYQSFKIPLEECIIIRPMLPILERDIIKALEECGIEYYKDKDMCPYSRDRGDSVRRRCHEILEKLEEEIPNIREMVVSSALKTVEYYSKNPYGEDNL”, the entry is “soluble”; as for “MVELFGAVLLLFGLSDLLFRFLGLGAYAHGSRREPKVALTFDDGPSERTEALLALLARHGVKATFFLTGEKARARPDLVEAIKRAGHQVEDHGEWHRPLWLFLPWVEWRHMAQNPGRYYRPPYGLHTPFTRLFARLLGKRVVLWDLESKDWLNLPPEELAERLLFYLRPGSIVLFHDGPERTLRLLGAGPAGDAPPGVPAHHPGRPRPFAPHPEARPHPGPPGV”, “soluble”; as for “MVEQTTSEPAAGSMPKISFGVKKREENKVQAPAKAVVIEVDLDSDEEREKNEMERAAKRRKVMHFEDGTVQGDIDKPKEAAVIPMVVEHDWRTQKLIEKEKAGTLTEEERAKLALVLPNGIDGENEEESGKGEKIVVEDGRGDTEDADYSAIPIESFGLAILRGCNWKDGDGIGKNPQKVALKLPNRRPPGLGLGATPKNPVGKNKNTGESSKAEEEKLEEIKVGSFIKVVDGRNKGVYGKVEGRDDDSNSLFIRTAIGGKTMKVSQIVAVAVSAKEYERDSKCLNKSEYDKEKDRLETERKKLESQPPSTSTSQSSKDYKSKSSSSKHDKNSSEYERNDKMWARTDLLVRFIDEDFKRGSLYEQKVRIVDVAGDNDVTIEDDRGNTHYNIRQSWLETVIPREIGEKLMIVAGKRSGQLAVMLDKDKRKEKVTARLVATNDVVTAYFEDVCSVKIRHEEDYE”, “not soluble”.
Consider “MVERTAVFPAGRHSLYAEHRYSAAIRSGDLLFVSGQVGSREDGTPEPDFQQQVRLAFDNLHATLAAAGCTFDDIIDVTSFHTDPENQFEDIMTVKNEIFSAPPYPNWTAVGVTWLAGFDFEIKVIARIPEQ”, for which the “soluble on expression in E. coli” value is “soluble”.
For “MVESNKTAADTYSLAIFRAIRRLQQAAEIHSKRLSRYGGLTPLQLLILHVLAVEGELTATQLAKLVSLSQASLSGVLDRLEGRGLLYRRRDEQDRRKSWLHLDPAGHEALAEAPPLLPEYVIERFAALPEWERHGLLAALLRAADLFGLPEEDVEEE”, the “soluble on expression in E. coli” value was “not soluble”.
Take “MVGHVLYGWRDRPRRGEVDYPHTENIRMGHTWDSKRDVSKFDKSWSDQNIVDAIVATLENPDYALSGKVKRVVWKDIHGTTVRVSYNVCLMVGVISDRAYSDTPDRKAKRIVE”: the “soluble on expression in E. coli” value is on record as “not soluble”.
Consider “MVGPLNGAIGDITGAASELENIPFIGPAIGAKLQRTMRGINVAQAKVGQVVAMYGRATSAVSQVQERIGTLKEQASKASAAINRVAGKISPSLGNIVPTGSFASQATPAPEAVKPFPHLLIIQPLKPEAQPYYFNLDTAAFDELRRQTAFRWAGQERLTRSIAQQAVGLGDDKLSLKGSIFPGFKGGLKQLNTLRSMGRNLQPLSLTTGYGEVLGNWCLLSVDEEQSNLLAGGIPRKQGFSLEFVSYGDDLQNV”, for which the “soluble on expression in E. coli” value is on record as “not soluble”.
As to “MVIKFSSNTTNPPTMIYMGVDKVENEDLIKYGWPEDVWFHVDKLSSAHVYLRLHSGMTIDSIPEALLIDCCQLVKQNSIEGCKLNNVAIVYTMWSNLKKTGDMAVGQVGFHSHKQVKHTVVPTKINEIVNRLEKTRRKDDIDYKEERDARDAKERQKLKKLEQERKDREKKEMLAQNEKKRIEGYEDVDWDAGATTRNDVDPGNLSDDFM”, the “soluble on expression in E. coli” value is given as “not soluble”.
In the case of “MVINSINWLFSEVVAMAVGEKITISVIKADVGGWPGHSRVHPALIEKAREVLSEAQKNGTIIDFYVTYAGDDLQLIMTHKKGVDSPEVHGLAWEAFKKATEVAKELGLYGAGQDLLKDAFSGNVRGLGPSVAEMEITLRKSEPIVTFHLDKTEPGAFNLPIFRMFADPFNTAGLVIDPKMHMGFRFEIWDILEHKKVIMSSPEEMYDILALIGAKSRYVIKRVYPKEGHPVPKDEPVAVVSTEKLYEVAGEYVGKDDPVAIVRAQSGLPALGEVLEPFAFPHLVSGWMRGSHNGPLMPVPLKYATPTRFDGPPRAVALGWQISPEGKLIGPVDLFDDPAFDWARQKALEITDYIRRHGPFEPHRLPSEEMEYTTLPGVLEKLKDRFEPIE”, the “soluble on expression in E. coli” value was “soluble”.
The result for “MVIRVYIASSSGSTAIKKKQQDVLGFLEANKIGFEEKDIAANEENRKWMRENVPENSRPATGYPLPPQIFNESQYRGDYDAFFEARENNAVYAFLGLTAPPGSKEAEV” reads “soluble”; that for “MVKDEVIKQISTPLTSPAFPRGPYKFHNREYFNIVYRTDMDALRKVVPEPLEIDEPLVRFEIMAMHDTSGLGCYTESGQAIPVSFNGVKGDYLHMMYLDNEPAIAVGRELSAYPKKLGYPKLFVDSDTLVGTLDYGKLRVATATMGYKHKALDANEAKDQICRPNYMLKIIPNYDGSPRICELINAKITDVTVHEAWTGPTRLQLFDHAMAPLNDLPVKEIVSSSHILADIILPRAEVIYDYLK”, “soluble”.
As for “MVKDKQKAIFSENLNSYIAKSEKTQLEIAKSIGVSPQTFNTWCKGIAIPRMGKVQALADYFNINKSDLIEDKKLNIDTVPIESGYTIPVLGRVAAGYGKEAVEEVIGQIEISPSMAAKGDYFGLLIKGDSMIPTLYDGDTVIVERTDDAESGDLVIALVNGSDATCKRLQKYAEGIALIPQNPVYEPMRFTESEIDTTPVKILGKVVEMRRKFLEHHHHHH”, the entry is “soluble”; as for “MVKKEFHLTHTFKNVSKLEDGKTLYGPEEEHFNIPWQLSFCRKEEFVGVFLRCLRPTDGIVPWEINADCILKLTSSAGKCLSHSSTYIFQSIGGFGRRKFVSWDTLVKDHLVNDSIIMEATVMITKMTGISKKKLRSFEKSEEQFSDVVLAVEDKKFFVLRKFLASHSSYFKSLLLGTFAEADKSEIKHEAINSIDFQNFLEVLYGEPVIDDDDVEGILHLAHMYDVPVAIRKCEEFLIEKSEKSMRDQLEIAKKYQLDNLKKSCLSKVNTVEEIKAALMCDLADMDPTVVAALFRKSLALL”, “not soluble”.
For the sequence “MVKQLKFSEDARQAMLRGVDQLANAVKVTIGPKGRNVVLDKEFTAPLITNDGVTIAKEIELEDPYENMGAKLVQEVANKTNEIAGDGTTTATVLAQAMIQEGLKNVTSGANPVGLRQGIDKAVKVAVEALHENSQKVENKNEIAQVGAISAADEEIGRYISEAMEKVGNDGVITIEESNGLNTELEVVEGMQFDRGYQSPYMVTDSDKMVAELERPYILVTDKKISSFQDILPLLEQVVQSNRPILIVADEVEGDALTNIVLNRMRGTFTAVAVKAPGFGDRRKAMLEDLAILTGAQVITDDLGLDLKDASIDMLGTASKVEVTKDNTTVVDGDGDENSIDARVSQLKSQIEETESDFDREKLQERLAKLAGGVAVIKVGAASETELKERKLRIEDALNSTRAAVEEGIVAGGGTALVNVYQKVSEIEAEGDIETGVNIVLKALTAPVRQIAENAGLEGSVIVERLKNAEPGVGFNAATNEWVNMLEEGIVDPTKVTRSALQHAASVAAMFLTTEAVVASIPEKNNDQPNMGGMPGMM”, the “soluble on expression in E. coli” value was “not soluble”.
On to “MVKSLQLAHQLKDKKILLIGGGEVGLTRLYKLIPTGCKLTLVSPDLHKSIIPKFGKFIQNEDQPDYREDAKRFINPNWDPTKNEIYEYIRSDFKDEYLDLEDENDAWYIIMTCIPDHPESARIYHLCKERFGKQQLVNVADKPDLCDFYFGANLEIGDRLQILISTNGLSPRFGALVRDEIRNLFTQMGDLALEDAVVKLGELRRGIRLLAPDDKDVKYRMDWARRCTDLFGIQHCHNIDVKRLLDLFKVMFQEQNCSLQFPPRERLLSEYCSS”, for which the “soluble on expression in E. coli” value is reported as “not soluble”.
